Results reported in patent publication US20130273035.

Biological target: Aβ1-42 (UniProt P05067)
Sequence (P05067 whole entry, looked up, tested part not stated): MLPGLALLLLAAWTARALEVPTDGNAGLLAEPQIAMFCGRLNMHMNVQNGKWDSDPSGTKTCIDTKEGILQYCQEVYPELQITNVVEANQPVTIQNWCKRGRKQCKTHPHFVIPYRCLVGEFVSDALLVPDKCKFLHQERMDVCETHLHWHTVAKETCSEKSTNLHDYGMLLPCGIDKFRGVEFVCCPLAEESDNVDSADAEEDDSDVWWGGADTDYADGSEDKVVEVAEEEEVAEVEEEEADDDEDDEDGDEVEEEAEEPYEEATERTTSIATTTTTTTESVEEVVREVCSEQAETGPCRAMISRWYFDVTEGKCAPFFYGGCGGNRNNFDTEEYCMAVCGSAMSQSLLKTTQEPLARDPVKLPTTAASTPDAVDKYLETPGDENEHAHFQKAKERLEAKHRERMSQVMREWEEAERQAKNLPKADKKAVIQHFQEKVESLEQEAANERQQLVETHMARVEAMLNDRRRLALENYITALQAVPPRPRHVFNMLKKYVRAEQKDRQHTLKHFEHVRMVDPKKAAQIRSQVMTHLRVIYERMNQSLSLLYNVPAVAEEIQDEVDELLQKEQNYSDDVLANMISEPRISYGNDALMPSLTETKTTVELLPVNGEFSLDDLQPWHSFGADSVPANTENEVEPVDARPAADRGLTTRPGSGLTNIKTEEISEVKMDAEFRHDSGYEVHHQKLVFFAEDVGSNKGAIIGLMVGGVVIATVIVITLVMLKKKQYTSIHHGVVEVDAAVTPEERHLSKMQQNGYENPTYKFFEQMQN

How did the “proteolytic products analyzed with SELDI-TOF mass spectrometry” value turn out when Cathepsin L was run?
The value was “Incubating Aβ1-42 with CatL resulted in the dose-dependent generation of Aβ6-42 through proteolytic cleavage”.
